For experiment [1], the target named is T1, Recombinant human/cynomolgus/rhesus macaque CD28 mouse IgG2a Fc fusion protein (Acro Biosystems) (human/cynomolgus/rhesus macaque, UniProt P10747 19-152).
T1 construct: bought; also called huCD28
Description: SPR Biacore T200, CD28-mIgG2a Fc on CM5, construct injected, 1:1 model.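 Further: fc fusion captured by amine coupling, run at 25 °C in HEPES buffer pH 7.4, association 140-500 s then dissociation 600-1200 s, values averaged over three independent runs.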 A general note: In SPR one partner is held on a chip, and binding of the other changes the refractive index at the surface.
Description: All SPR binding experiments were carried out using a BiacoreT200 instrument at 25° C. with 10 mM HEPES, 150 mM NaCl, 3 mM EDTA, and 0.05% Tween 20 at pH 7.4. Recombinant human/cynomolgus/rhesus macaque CD28 mouse IgG2a Fc fusion protein (Acro Biosystems) was covalently immobilized on CM5 sensor chips by amine coupling. Purified antibody constructs to be tested were injected on the sensor chip at 30 μL/min for 140-500 s following a dissociation for 600-1200 s. Resultant kₒₙ, koff and KD values were determined from fitting the sensorgrams using the 1:1 binding model with reported values as the mean of three independent runs.

Experiment [2] has as its target T2, Recombinant human CD3 epsilon/delta heterodimer, his tag protein (Acro Biosystems) (human, UniProt P07766 23-126; P04234 22-105).
T2 construct: bought
Nature of the experiment: SPR Biacore T200, CD3 e/d-his on CM5, construct injected, 1:1 model.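 Further: measured at 25 °C in HEPES-buffered saline with EDTA and Tween 20 at pH 7.4, values are means of three independent runs.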

B1: v37641 (trispecific antibody, human IgG1, kappa, L234A L235A)
heavy 1: QVQLVESGGGLVQPGGSLRLSCSVSGIDLSSNPMIWVRQAPGKGLQYIGIIDTDGSTYYADWAKGRFTISKDSTTVYLQINSPRAEDTAVYYCARRLHGSSNGYYDDLWGQGTLVTVSSGGGGSGGGGSGGGGSGGGGSDGQMTQSPSSVSASVGDRVTITCQASQSIYSYLSWYQQKPGQRPKLLIYKASTLASGVPSRFSGSGSGTDFTLTISSVQPEDFATYYCQQGYTVTNVDKNTFGGGTKVEIKGGGGSGQVQLQESGPGLVKPSETLSLTCAVSGFSLTSYGVHWIRQPPGKGLEWLGVIWPGGGTNFNSALMSRLTISEDTSKNQVSLKLSSVTAADTAVYYCARDRAYGNYLYAMDYWGQGTLVTVSSASTKGPSVFPLAPSSKSTSGGTAALGCLVKDYFPEPVTVSWNSGALTSGVHTFPAVLQSSGLYSLSSVVTVPSSSLGTQTYICNVNHKPSNTKVDKKVEPKSCDKTHTCPPCPAPEAAGGPSVFLFPPKPKDTLMISRTPEVTCVVVSVSHEDPEVKFNWYVDGVEVHNAKTKPREEQYNSTYRVVSVLTVLHQDWLNGKEYKCKVSNKALPAPIEKTISKAKGQPREPQVYVYPPSRDELTKNQVSLTCLVKGFYPSDIAVEWESNGQPENNYKTTPPVLDSDGSFALVSKLTVDKSRWQQGNVFSCSVMHEALHNHYTQKSLSLSPGGGGGSGNFMLTQPHSVSESPGKTVTISCKRNTGNIGSNYVNWYQQHEGSSPTTIIYRNDKRPDGVSDRFSGSIDRSSKSASLTISNLKTEDEADYFCQSYSSGFIFGGGTKLTVLGGGGSGGGGSGGGGSGGGGSEVQLVESGGGLVQPGGSLRLSCAASGVTFNYYGMSWIRQAPGKGLEWVASITSSGGRIYYPDSVKGRFTISRENTQKTLYLQMNSLRAEDTAVYYCTLDGRDGWVAYWGQGTLVTVSS
heavy 2: EPKSSDKTHTCPPCPAPEAAGGPSVFLFPPKPKDTLMISRTPEVTCVVVSVSHEDPEVKFNWYVDGVEVHNAKTKPREEQYNSTYRVVSVLTVLHQDWLNGKEYKCKVSNKALPAPIEKTISKAKGQPREPQVYVLPPSRDELTKNQVSLLCLVKGFYPSDIAVEWESNGQPENNYLTWPPVLDSDGSFFLYSKLTVDKSRWQQGNVFSCSVMHEALHNHYTQKSLSLSPG
light: DIQMTQSPSSLSASVGDRVTITCRASESVEYYVTSLMQWYQQKPGKAPKLLIYAASNVDSGVPSRFSGSGSGTDFTLTISSLQPEDIATYYCQQSRKVPFTFGGGTKVEIKRTVAAPSVFIFPPSDEQLKSGTASVVCLLNNFYPREAKVQWKVDNALQSGNSQESVTEQDSKDSTYSLSSTLTLSKADYEKHKVYACEVTHQGLSSPVTKSFNRGEC
notes: second heavy chain is Fc only; Het Fc, FcKO; also called Cldn18.2xCD28xCD3 trispecific
Consider B1, for which, in experiment [1], the Kd (as a rule, the free concentration of one partner at which half of the binding sites on the other are occupied at equilibrium, for simple one-to-one binding) stood at 31.8 nM; the koff – broadly, the rate constant with which the complex falls apart – amounted to 0.00206 s⁻¹; the kon (usually the second-order rate constant of association) came out at 66500 M⁻¹ s⁻¹. Moreover, in experiment [2], the Kd came out at 225 nM, the off-rate (koff) was 0.0134 s⁻¹ and the kon was 60800 M⁻¹ s⁻¹.
